Results: the supplement of paper PMC7877785
± gives the uncertainty stated by the source.

Test: self-splicing fitness, log relative to wild type (ln ratio); higher = more splicing; Tetrahymena group I intron in knt gene, E. coli kanamycin selection, DiMSum; sequences stand for … in CUCUCU…GGAGGGAAAAGUUAUCAGGCAUGCACCUGGUAGCUAGUCUUUAAACCAAUAGAUUGCAUCGGUUUAAAAGGCAAGACCGUCAAAUUGCGGGAAAGGGGUCAACAGCCGUUCAGUACCAAGUCUCAGGGGAAACUUUGAGAUGGCCUUGCAAAGGGUAUGGUAAUAAGCUGACGGACAUGGUCCUAACCACGCAGCCAAGUCCUAAGUCAACAGAUCUUCUGUUGAUAUGGAUGCAGUUCACAGACUAAAUGUCGGUCGGGGAAGAUGUAUUCUUCUCAUAAGAUAUAGUCGGACCUCUCCUUAAUGGGAGCUAGCGGAUGAAGUGAUGCAACACUGGAGCCGCUGGGAACUAAUUUGUAUGCGAAAGUAUAUUGAUUAGUUUUGGAGUACUCGUGGUCG
In short: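 Library with all eight P1ex-region intron nucleotides randomised, intron inside the knt kanamycin-resistance gene on pET-22b(+), in E. coli BL21(DE3). Cells grew overnight at 37°C or 30°C on LB agar with or without 25 μg/mL kanamycin (plus 100 μg/mL carbenicillin, 50 μM IPTG, 0.2% rhamnose), in six replicate transformations. Pooled colonies were amplicon-sequenced on Illumina HiSeq 2500. DiMSum fitness is the error-weighted combination of wild-type-normalised replicate fold changes, kanamycin versus none.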

Sequence | self-splicing fitness (ln) (30 °C) | self-splicing fitness (ln) (37 °C)
GUACAGCAAUAUUACGACGU | -0.603 ± 0.075 | 0.215 ± 0.081
AACUAGCAAUAUUACGCGUU | -3.51 ± 0.19 | -2.48 ± 0.29
GUAUAGCAAUAUUACGACGA | -1.78 ± 0.24 | -0.483 ± 0.19
GCUAAGCAAUAUUACGUAUG | -2.2 ± 0.1 | -1.12 ± 0.14
AAUCAGCAAUAUUACGGAAC | -1.37 ± 0.064 | -0.769 ± 0.093
CAAAAGCAAUAUUACGGACC | -3 ± 0.21 | -1.98 ± 0.2
AGCCAGCAAUAUUACGGUUA | -0.713 ± 0.13 | -0.226 ± 0.11
GAUCAGCAAUAUUACGUUAC | -2.16 ± 0.097 | -1.19 ± 0.11
UGUCAGCAAUAUUACGUUGC |  | -1.75 ± 0.46
UCAAAGCAAUAUUACGGACC |  | -2.54 ± 0.32
AUUUAGCAAUAUUACGAAUA | -2.16 ± 0.33 | -0.575 ± 0.27
GACGAGCAAUAUUACGGAAA | -2.69 ± 0.3 | -1.47 ± 0.29
AUGCAGCAAUAUUACGUCAG | -2.17 ± 0.092 | -1.12 ± 0.11
CAUAAGCAAUAUUACGUUCC | -3.94 ± 0.32 | 
GGCGAGCAAUAUUACGAAAC | -2.42 ± 0.15 | -0.0615 ± 0.14
CACGAGCAAUAUUACGCGAU | -3.23 ± 0.21 | -2.51 ± 0.41
GCGUAGCAAUAUUACGCAAG | -3.32 ± 0.41 | 
CACCAGCAAUAUUACGCUUU | -3.8 ± 0.14 | -1.94 ± 0.093
UCCUAGCAAUAUUACGGCAU | -3.31 ± 0.17 | -2.2 ± 0.11
UGGGAGCAAUAUUACGGCAU |  | -2.47 ± 0.45
UACGAGCAAUAUUACGUGCC | -2.35 ± 0.29 | 
GAAUAGCAAUAUUACGAUAC | -1.47 ± 0.15 | -0.123 ± 0.17
GCAGAGCAAUAUUACGGAGG | -5.06 ± 0.25 | -2.14 ± 0.15
UGAUAGCAAUAUUACGCUCA | 0.162 ± 0.15 | -0.26 ± 0.15
AGGUAGCAAUAUUACGUGGC | -3.619 ± 0.028 | -2.74 ± 0.042

Sequence | self-splicing fitness (ln) (30 °C) | self-splicing fitness (ln) (37 °C)
CAAGAGCAAUAUUACGAGGA | -3.17 ± 0.33 | -2.79 ± 0.44
AACCAGCAAUAUUACGUUAA | -1.83 ± 0.086 | -1.26 ± 0.085
GCUUAGCAAUAUUACGUUCU | -1.03 ± 0.095 | 0.0827 ± 0.1
ACCAAGCAAUAUUACGACGG | -0.86 ± 0.08 | 0.495 ± 0.1
CCAUAGCAAUAUUACGGCGG | -1.95 ± 0.13 | -1.6 ± 0.18
GGGAAGCAAUAUUACGAAUG |  | -0.92 ± 0.34
AUCGAGCAAUAUUACGGGGG | -3.4 ± 0.25 | -2.67 ± 0.26
GAUUAGCAAUAUUACGCGCA | -0.548 ± 0.12 | 0.433 ± 0.11
UAUAAGCAAUAUUACGUACA | -0.793 ± 0.12 | -0.427 ± 0.14
AGGUAGCAAUAUUACGUCAU | -2.147 ± 0.016 | -1.03 ± 0.034
GUGAAGCAAUAUUACGGCAC | -0.747 ± 0.16 | -0.289 ± 0.33
GUACAGCAAUAUUACGCCUG | -2.24 ± 0.25 | -0.634 ± 0.19
AUAGAGCAAUAUUACGGUAC | -3.74 ± 0.32 | -1.55 ± 0.23
AAUUAGCAAUAUUACGGAGC | -2.52 ± 0.3 | -2.64 ± 0.33
ACGCAGCAAUAUUACGUACC | -1.46 ± 0.24 | -0.295 ± 0.26
GGCCAGCAAUAUUACGAAUU | -3.05 ± 0.19 | -1.03 ± 0.11
GGUAAGCAAUAUUACGCAGA |  | -1.84 ± 0.47
UAAAAGCAAUAUUACGACUC | -1.22 ± 0.12 | -0.668 ± 0.18
CCACAGCAAUAUUACGCGUG | -3.86 ± 0.18 | -2.38 ± 0.14
UCAUAGCAAUAUUACGGGAA | -1.35 ± 0.19 | -1.1 ± 0.16
CUUCAGCAAUAUUACGACCU | -2.42 ± 0.21 | -1.7 ± 0.27
AUGAAGCAAUAUUACGAAAA | -2.58 ± 0.17 | -0.92 ± 0.15
GAAUAGCAAUAUUACGGCUU | 0.268 ± 0.075 | 0.303 ± 0.11
GUACAGCAAUAUUACGUAAA | -2.87 ± 0.14 | -1.44 ± 0.16
GCAUAGCAAUAUUACGUAGU | -2.22 ± 0.15 | -1.51 ± 0.16
